In the supplement of paper PMC11780869:

Tested on: Bacillus subtilis
Assay: cleaved RNA product abundance (RNA/gDNA barcode ratio) relative to median wild-type variant (ratio to wild type); higher = more accumulation of the downstream cleavage product
Conditions: cleavage site: cggR-gapA (positions -7 to +36 mutated)
Method in brief: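 Cleaved product abundance is expressed as the RNA:gDNA barcode ratio per construct, scaled to the median construct carrying the unmutated site. The constructs were barcoded, mutagenized RNase Y cleavage-site windows in truncated aprE or tetM reporter mRNAs integrated into the B. subtilis chromosome. Cultures grew in LB at 37°C from OD600 0.0003 to 0.3 before cleaved RNA was gel-selected and barcode-sequenced.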

[1] = experiment (reporter, strain, medium): exp 2b: truncated aprE reporter, strain BJT200
[2] = experiment (reporter, strain, medium): exp 4a: truncated aprE reporter, strain BJT201 with 2% xylose (RNase J1 expressed)

Sequence	cleaved RNA product abundance [1]	cleaved RNA product abundance [2]	cleaved RNA product abundance (experiment (reporter, strain, medium): exp 6: tetM reporter, strain 168)
ACAGACGAAGGAGCCGCAAAGAAGTTATTAAGAGATGAATAATCTCTCAATATAAATATCTCTCACTTATTTAAA	0.718	0.924	
ACAGACGAAGGAGCCGCAAAGAAGTTATTAAGAGATGAATAATGCCTCAATATAAATATCTCTCACTTATTTAAA		0.1	
ACAGACGAAGGAGCCGCAAAGAAGTTATTAAGAGATGAATAATTCCTCAATATAAATATCTCTCACTTATTTAAA	0.0877	0.106	
ACAGACGAAGGAGCCGCAAAGAAGTTATTAAGAGATGAATACTCCCTCAATATAAATATCTCTCACTTATTTAAA		0.0945	
ACAGACGAAGGAGCCGCAAAGAAGTTATTAAGAGATGAATAGTCCCTCAATATAAATATCTCTCACTTATTTAAA	0.0992	0.136	
ACAGACGAAGGAGCCGCAAAGAAGTTATTAAGAGATGAATATTCCCTCAATATAAATATCTCTCACTTATTTAAA		0.0954	
ACAGACGAAGGAGCCGCAAAGAAGTTATTAAGAGATGAATCATCCCTCAATATAAATATCTCTCACTTATTTAAA		0.139	
ACAGACGAAGGAGCCGCAAAGAAGTTATTAAGAGATGAATGATCCCTCAATATAAATATCTCTCACTTATTTAAA		0.0837	
ACAGACGAAGGAGCCGCAAAGAAGTTATTAAGAGATGAATTATCCCTCAATATAAATATCTCTCACTTATTTAAA	0.102	0.183	
ACAGACGAAGGAGCCGCAAAGAAGTTATTAAGAGATGACTAATCCCTCAATATAAATATCTCTCACTTATTTAAA	0.082	0.0924	
ACAGACGAAGGAGCCGCAAAGAAGTTATTAAGAGATGAGTAATCCCTCAATATAAATATCTCTCACTTATTTAAA		0.241	
ACAGACGAAGGAGCCGCAAAGAAGTTATTAAGAGATGATTAATCCCTCAATATAAATATCTCTCACTTATTTAAA		0.173	
ACAGACGAAGGAGCCGCAAAGAAGTTATTAAGAGATGCATAATCCCTCAATATAAATATCTCTCACTTATTTAAA	0.117	0.158	
ACAGACGAAGGAGCCGCAAAGAAGTTATTAAGAGATGTATAATCCCTCAATATAAATATCTCTCACTTATTTAAA		0.229	
ACAGACGAAGGAGCCGCAAAGAAGTTATTAAGAGATTAATAATCCCTCAATATAAATATCTCTCACTTATTTAAA	0.116	0.115	
ACAGACGAAGGAGCCGCAAAGAAGTTATTAAGAGCTGAATAATCCCTCAATATAAATATCTCTCACTTATTTAAA	0.0922		
ACAGACGAAGGAGCCGCAAAGAAGTTATTAAGAGGTGAATAATCCCTCAATATAAATATCTCTCACTTATTTAAA		0.253	
ACAGACGAAGGAGCCGCAAAGAAGTTATTAAGAGTTGAATAATCCCTCAATATAAATATCTCTCACTTATTTAAA		0.0897	
ACAGACGAAGGAGCCGCAAAGAAGTTATTAAGATATGAATAATCCCTAAATATAAATATCTCTCACTTATTTAAA		0.101	
ACAGACGAAGGAGCCGCAAAGAAGTTATTAAGATATGAATAATCCCTCAATATAAATATCTCTCACTTATTTAAA	0.0758	0.115	
ACAGACGAAGGAGCCGCAAAGAAGTTATTAAGCAATGAATAATCCCTCAATATAAATATCTCTCACTTATTTAAA	0.0903	0.122	
ACAGACGAAGGAGCCGCAAAGAAGTTATTAAGCCATGAATAATCCCTCAATATAAATATCTCTCACTTATTTAAA		0.106	0.058
